From patent publication US20140087995A1 (published 2014)
Numbered stars: 1 amine (or outer) side, 2 acyl side, 3 side chain; on linkers, the order of the positions; unused ones are H or OH. Bridge positions count the residues as written; N and C are the ends. Side chains are listed from the residue outwards. Ends that are not written are not given here. * marks the point of attachment. C20 diacid = O=C(O)CCCCCCCCCCCCCCCCCCC(=O)*; γGlu = O=C(O)[C@H](CCC(=O)[*:2])N[*:1]

T1: human amylin receptor (human, UniProt P30988 25-474; O60896 24-148, limits assumed)
T1 construct: whole, on cells; Calcitonin receptor plus RAMP-3 gives the amylin 3(a) receptor; membranes of Amylin 3(a)/CRE-luc cells were used; also called hAmylin-R; hAmylinR
T1 sequence (looked up) 1: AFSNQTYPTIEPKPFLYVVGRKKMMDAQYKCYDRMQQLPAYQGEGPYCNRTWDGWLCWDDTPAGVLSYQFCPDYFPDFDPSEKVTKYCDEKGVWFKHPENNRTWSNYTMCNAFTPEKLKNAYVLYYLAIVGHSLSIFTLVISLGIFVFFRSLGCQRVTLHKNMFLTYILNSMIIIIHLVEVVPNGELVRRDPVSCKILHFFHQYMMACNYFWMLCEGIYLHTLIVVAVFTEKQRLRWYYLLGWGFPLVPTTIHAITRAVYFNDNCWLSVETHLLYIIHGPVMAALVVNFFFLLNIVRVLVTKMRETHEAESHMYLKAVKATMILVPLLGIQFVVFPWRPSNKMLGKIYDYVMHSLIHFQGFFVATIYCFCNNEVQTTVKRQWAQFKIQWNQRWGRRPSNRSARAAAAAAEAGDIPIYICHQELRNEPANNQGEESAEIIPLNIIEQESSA
T1 sequence (looked up) 2: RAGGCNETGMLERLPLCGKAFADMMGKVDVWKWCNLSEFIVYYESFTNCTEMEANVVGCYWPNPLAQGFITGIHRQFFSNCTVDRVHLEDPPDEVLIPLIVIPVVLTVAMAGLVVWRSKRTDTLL

B1: N^ε1-[(4S)-4-carboxy-4-(19-carboxynonadecanoylamino)butanoyl]-[Arg17,Pro21,Pro27,His35]-h-amylin (peptide)
peptide: K([γGlu-C20 diacid])CNTATCATQRLANFLRHSSPNFGAIPSSTNVGSHTY-NH2
modifications: disulfide 2-7; N-terminus assumed
SMILES: CC[C@H](C)[C@H](NC(=O)[C@H](C)NC(=O)CNC(=O)[C@H](Cc1ccccc1)NC(=O)[C@H](CC(N)=O)NC(=O)[C@@H]1CCCN1C(=O)[C@H](CO)NC(=O)[C@H](CO)NC(=O)[C@H](Cc1c[nH]cn1)NC(=O)[C@H](CCCNC(=N)N)NC(=O)[C@H](CC(C)C)NC(=O)[C@H](Cc1ccccc1)NC(=O)[C@H](CC(N)=O)NC(=O)[C@H](C)NC(=O)[C@H](CC(C)C)NC(=O)[C@H](CCCNC(=N)N)NC(=O)[C@H](CCC(N)=O)NC(=O)[C@@H](NC(=O)[C@H](C)NC(=O)[C@@H]1CSSC[C@H](NC(=O)[C@@H](N)CCCCNC(=O)CC[C@H](NC(=O)CCCCCCCCCCCCCCCCCCC(=O)O)C(=O)O)C(=O)N[C@@H](CC(N)=O)C(=O)N[C@@H]([C@@H](C)O)C(=O)N[C@@H](C)C(=O)N[C@@H]([C@@H](C)O)C(=O)N1)[C@@H](C)O)C(=O)N1CCC[C@H]1C(=O)N[C@@H](CO)C(=O)N[C@@H](CO)C(=O)N[C@H](C(=O)N[C@@H](CC(N)=O)C(=O)N[C@H](C(=O)NCC(=O)N[C@@H](CO)C(=O)N[C@@H](Cc1c[nH]cn1)C(=O)N[C@H](C(=O)N[C@@H](Cc1ccc(O)cc1)C(N)=O)[C@@H](C)O)C(C)C)[C@@H](C)O
notes: also called 17R, 21P, 27P, 35H
B2: N^ε1-[(4S)-4-carboxy-4-(19-carboxynonadecanoylamino)butanoyl]-[Glu14,Arg17,Pro21,Pro27,Arg34,Glu35]-h-amylin (peptide)
peptide: K([γGlu-C20 diacid])CNTATCATQRLAEFLRHSSPNFGAIPSSTNVGRETY-NH2
modifications: disulfide 2-7; N-terminus assumed
SMILES: CC[C@H](C)[C@H](NC(=O)[C@H](C)NC(=O)CNC(=O)[C@H](Cc1ccccc1)NC(=O)[C@H](CC(N)=O)NC(=O)[C@@H]1CCCN1C(=O)[C@H](CO)NC(=O)[C@H](CO)NC(=O)[C@H](Cc1c[nH]cn1)NC(=O)[C@H](CCCNC(=N)N)NC(=O)[C@H](CC(C)C)NC(=O)[C@H](Cc1ccccc1)NC(=O)[C@H](CCC(=O)O)NC(=O)[C@H](C)NC(=O)[C@H](CC(C)C)NC(=O)[C@H](CCCNC(=N)N)NC(=O)[C@H](CCC(N)=O)NC(=O)[C@@H](NC(=O)[C@H](C)NC(=O)[C@@H]1CSSC[C@H](NC(=O)[C@@H](N)CCCCNC(=O)CC[C@H](NC(=O)CCCCCCCCCCCCCCCCCCC(=O)O)C(=O)O)C(=O)N[C@@H](CC(N)=O)C(=O)N[C@@H]([C@@H](C)O)C(=O)N[C@@H](C)C(=O)N[C@@H]([C@@H](C)O)C(=O)N1)[C@@H](C)O)C(=O)N1CCC[C@H]1C(=O)N[C@@H](CO)C(=O)N[C@@H](CO)C(=O)N[C@H](C(=O)N[C@@H](CC(N)=O)C(=O)N[C@H](C(=O)NCC(=O)N[C@@H](CCCNC(=N)N)C(=O)N[C@@H](CCC(=O)O)C(=O)N[C@H](C(=O)N[C@@H](Cc1ccc(O)cc1)C(N)=O)[C@@H](C)O)C(C)C)[C@@H](C)O
notes: also called 14E, 17R, 21P, 27P, 34R, 35E
B3: N^ε1-[(4S)-4-carboxy-4-(19-carboxynonadecanoylamino)butanoyl]-[Glu14,Arg17,Pro21,Pro27,Pro34,Glu35]-h-amylin (peptide)
peptide: K([γGlu-C20 diacid])CNTATCATQRLAEFLRHSSPNFGAIPSSTNVGPETY-NH2
modifications: disulfide 2-7; N-terminus assumed
SMILES: CC[C@H](C)[C@H](NC(=O)[C@H](C)NC(=O)CNC(=O)[C@H](Cc1ccccc1)NC(=O)[C@H](CC(N)=O)NC(=O)[C@@H]1CCCN1C(=O)[C@H](CO)NC(=O)[C@H](CO)NC(=O)[C@H](Cc1c[nH]cn1)NC(=O)[C@H](CCCNC(=N)N)NC(=O)[C@H](CC(C)C)NC(=O)[C@H](Cc1ccccc1)NC(=O)[C@H](CCC(=O)O)NC(=O)[C@H](C)NC(=O)[C@H](CC(C)C)NC(=O)[C@H](CCCNC(=N)N)NC(=O)[C@H](CCC(N)=O)NC(=O)[C@@H](NC(=O)[C@H](C)NC(=O)[C@@H]1CSSC[C@H](NC(=O)[C@@H](N)CCCCNC(=O)CC[C@H](NC(=O)CCCCCCCCCCCCCCCCCCC(=O)O)C(=O)O)C(=O)N[C@@H](CC(N)=O)C(=O)N[C@@H]([C@@H](C)O)C(=O)N[C@@H](C)C(=O)N[C@@H]([C@@H](C)O)C(=O)N1)[C@@H](C)O)C(=O)N1CCC[C@H]1C(=O)N[C@@H](CO)C(=O)N[C@@H](CO)C(=O)N[C@H](C(=O)N[C@@H](CC(N)=O)C(=O)N[C@H](C(=O)NCC(=O)N1CCC[C@H]1C(=O)N[C@@H](CCC(=O)O)C(=O)N[C@H](C(=O)N[C@@H](Cc1ccc(O)cc1)C(N)=O)[C@@H](C)O)C(C)C)[C@@H](C)O
notes: also called 14E, 17R, 21P, 27P, 34P, 35E
B4: N^ε1-[(4S)-4-carboxy-4-(19-carboxynonadecanoylamino)butanoyl]-[Glu14,Arg17,Pro21,Pro27,Pro34,His35]-h-amylin (peptide)
peptide: K([γGlu-C20 diacid])CNTATCATQRLAEFLRHSSPNFGAIPSSTNVGPHTY-NH2
modifications: disulfide 2-7
notes: also called 14E, 17R, 21P, 27P, 34P, 35H
B5: N^ε1-[(4S)-4-carboxy-4-(19-carboxynonadecanoylamino)butanoyl]-[Glu14,Arg17,Pro21,Pro27,Pro34,Arg35]-h-amylin (peptide)
peptide: K([γGlu-C20 diacid])CNTATCATQRLAEFLRHSSPNFGAIPSSTNVGPRTY-NH2
modifications: disulfide 2-7; N-terminus assumed
SMILES: CC[C@H](C)[C@H](NC(=O)[C@H](C)NC(=O)CNC(=O)[C@H](Cc1ccccc1)NC(=O)[C@H](CC(N)=O)NC(=O)[C@@H]1CCCN1C(=O)[C@H](CO)NC(=O)[C@H](CO)NC(=O)[C@H](Cc1c[nH]cn1)NC(=O)[C@H](CCCNC(=N)N)NC(=O)[C@H](CC(C)C)NC(=O)[C@H](Cc1ccccc1)NC(=O)[C@H](CCC(=O)O)NC(=O)[C@H](C)NC(=O)[C@H](CC(C)C)NC(=O)[C@H](CCCNC(=N)N)NC(=O)[C@H](CCC(N)=O)NC(=O)[C@@H](NC(=O)[C@H](C)NC(=O)[C@@H]1CSSC[C@H](NC(=O)[C@@H](N)CCCCNC(=O)CC[C@H](NC(=O)CCCCCCCCCCCCCCCCCCC(=O)O)C(=O)O)C(=O)N[C@@H](CC(N)=O)C(=O)N[C@@H]([C@@H](C)O)C(=O)N[C@@H](C)C(=O)N[C@@H]([C@@H](C)O)C(=O)N1)[C@@H](C)O)C(=O)N1CCC[C@H]1C(=O)N[C@@H](CO)C(=O)N[C@@H](CO)C(=O)N[C@H](C(=O)N[C@@H](CC(N)=O)C(=O)N[C@H](C(=O)NCC(=O)N1CCC[C@H]1C(=O)N[C@@H](CCCNC(=N)N)C(=O)N[C@H](C(=O)N[C@@H](Cc1ccc(O)cc1)C(N)=O)[C@@H](C)O)C(C)C)[C@@H](C)O
notes: also called 14E, 17R, 21P, 27P, 34P, 35R
B6: N^ε1-[(4S)-4-carboxy-4-(19-carboxynonadecanoylamino)butanoyl]-[Asp14,Arg17,Pro21,Pro27,Pro34,Glu35]-h-amylin (peptide)
peptide: K([γGlu-C20 diacid])CNTATCATQRLADFLRHSSPNFGAIPSSTNVGPETY-NH2
modifications: disulfide 2-7; N-terminus assumed
SMILES: CC[C@H](C)[C@H](NC(=O)[C@H](C)NC(=O)CNC(=O)[C@H](Cc1ccccc1)NC(=O)[C@H](CC(N)=O)NC(=O)[C@@H]1CCCN1C(=O)[C@H](CO)NC(=O)[C@H](CO)NC(=O)[C@H](Cc1c[nH]cn1)NC(=O)[C@H](CCCNC(=N)N)NC(=O)[C@H](CC(C)C)NC(=O)[C@H](Cc1ccccc1)NC(=O)[C@H](CC(=O)O)NC(=O)[C@H](C)NC(=O)[C@H](CC(C)C)NC(=O)[C@H](CCCNC(=N)N)NC(=O)[C@H](CCC(N)=O)NC(=O)[C@@H](NC(=O)[C@H](C)NC(=O)[C@@H]1CSSC[C@H](NC(=O)[C@@H](N)CCCCNC(=O)CC[C@H](NC(=O)CCCCCCCCCCCCCCCCCCC(=O)O)C(=O)O)C(=O)N[C@@H](CC(N)=O)C(=O)N[C@@H]([C@@H](C)O)C(=O)N[C@@H](C)C(=O)N[C@@H]([C@@H](C)O)C(=O)N1)[C@@H](C)O)C(=O)N1CCC[C@H]1C(=O)N[C@@H](CO)C(=O)N[C@@H](CO)C(=O)N[C@H](C(=O)N[C@@H](CC(N)=O)C(=O)N[C@H](C(=O)NCC(=O)N1CCC[C@H]1C(=O)N[C@@H](CCC(=O)O)C(=O)N[C@H](C(=O)N[C@@H](Cc1ccc(O)cc1)C(N)=O)[C@@H](C)O)C(C)C)[C@@H](C)O
notes: also called 14D, 17R, 21P, 27P, 34P, 35E
B7: N^ε1-[(4S)-4-carboxy-4-(19-carboxynonadecanoylamino)butanoyl]-[Glu14,Arg17,Pro21,Pro27,His34,Glu35]-h-amylin (peptide)
peptide: K([γGlu-C20 diacid])CNTATCATQRLAEFLRHSSPNFGAIPSSTNVGHETY-NH2
modifications: disulfide 2-7; N-terminus assumed
SMILES: CC[C@H](C)[C@H](NC(=O)[C@H](C)NC(=O)CNC(=O)[C@H](Cc1ccccc1)NC(=O)[C@H](CC(N)=O)NC(=O)[C@@H]1CCCN1C(=O)[C@H](CO)NC(=O)[C@H](CO)NC(=O)[C@H](Cc1c[nH]cn1)NC(=O)[C@H](CCCNC(=N)N)NC(=O)[C@H](CC(C)C)NC(=O)[C@H](Cc1ccccc1)NC(=O)[C@H](CCC(=O)O)NC(=O)[C@H](C)NC(=O)[C@H](CC(C)C)NC(=O)[C@H](CCCNC(=N)N)NC(=O)[C@H](CCC(N)=O)NC(=O)[C@@H](NC(=O)[C@H](C)NC(=O)[C@@H]1CSSC[C@H](NC(=O)[C@@H](N)CCCCNC(=O)CC[C@H](NC(=O)CCCCCCCCCCCCCCCCCCC(=O)O)C(=O)O)C(=O)N[C@@H](CC(N)=O)C(=O)N[C@@H]([C@@H](C)O)C(=O)N[C@@H](C)C(=O)N[C@@H]([C@@H](C)O)C(=O)N1)[C@@H](C)O)C(=O)N1CCC[C@H]1C(=O)N[C@@H](CO)C(=O)N[C@@H](CO)C(=O)N[C@H](C(=O)N[C@@H](CC(N)=O)C(=O)N[C@H](C(=O)NCC(=O)N[C@@H](Cc1c[nH]cn1)C(=O)N[C@@H](CCC(=O)O)C(=O)N[C@H](C(=O)N[C@@H](Cc1ccc(O)cc1)C(N)=O)[C@@H](C)O)C(C)C)[C@@H](C)O
notes: also called 14E, 17R, 21P, 27P, 34H, 35E

Target: T1, human amylin receptor
Experiment: SPA competition binding, displacement of 125I-rat amylin from membranes with human amylin 3(a) receptor (Assay V)
Outline: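 Membranes from BHK Amylin 3(a)/CRE-luc cells (35 ng/μL final) were mixed with SPA beads and test compounds in 50 mM Hepes pH 7.4 with 1 mM CaCl2, 5 mM MgCl₂, 0.1% OA and 0.02% Tween20. Incubation ran 120 min at 25° C with shaking; IC₅₀ came from one-site competition fitting.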

Row | IC50 [pM] | Binder
1 | 695 | B1
2 | 232 | B2
3 | 140 | B3
4 | 179 | B4
5 | 163 | B5
6 | 196 | B6
7 | 387 | B7
